Reference: publication PMC10021052, “Novel multivalent S100A8 inhibitory peptides attenuate tumor progression and metastasis by inhibiting the TLR4-dependent pathway” (Cancer Gene Therapy, 2023)
“Also recorded” adds a separate entry of the source.

Experiments:
MDSCs = assay: In vivo S100A8 stimulation, MDSC recruitment to lungs; design: species or system C57BL/6J mice; conditions: recombinant S100A8 i.v., 4 h; *P < 0.05 vs control
Procedure: Balb nu/nu or C57BL/6J mice were purchased from Clea Japan Inc. (Tokyo, Japan). Mice were used for experiments at 2–3 months of age. […] For in vivo S100A8 stimulation, C57BL/6J mice were intravenously injected with mammalian-derived S100A8. Four hours after the i.v. injection, mice were sacrificed, and minced mouse lungs were digested with collagenase/dispase/DNase solution. Collected cells were incubated with anti-CD11b-PE (BD Bioscience), anti-Ly6G-FITC (BD Bioscience), and anti-Ly6C-APC (BD Bioscience) antibodies, and analyzed by a flow cytometry (Cytomics FC500; Beckman Coulter, Brea, CA, USA). […] The mice were sacrificed after 16 h, and minced mouse lungs were digested with collagenase/dispase/DNase solution. The recruitment of MDSCs or PKH-26 labeled tumor cells in the lungs was determined by flow cytometry (CytoFlex; Beckman Coulter).

[1] = biological target: human TLR4/MD-2 complex (human) (UniProt O00206)
Chain of human TLR4/MD-2 complex (human) (O00206 24-839, chain 1 of 2): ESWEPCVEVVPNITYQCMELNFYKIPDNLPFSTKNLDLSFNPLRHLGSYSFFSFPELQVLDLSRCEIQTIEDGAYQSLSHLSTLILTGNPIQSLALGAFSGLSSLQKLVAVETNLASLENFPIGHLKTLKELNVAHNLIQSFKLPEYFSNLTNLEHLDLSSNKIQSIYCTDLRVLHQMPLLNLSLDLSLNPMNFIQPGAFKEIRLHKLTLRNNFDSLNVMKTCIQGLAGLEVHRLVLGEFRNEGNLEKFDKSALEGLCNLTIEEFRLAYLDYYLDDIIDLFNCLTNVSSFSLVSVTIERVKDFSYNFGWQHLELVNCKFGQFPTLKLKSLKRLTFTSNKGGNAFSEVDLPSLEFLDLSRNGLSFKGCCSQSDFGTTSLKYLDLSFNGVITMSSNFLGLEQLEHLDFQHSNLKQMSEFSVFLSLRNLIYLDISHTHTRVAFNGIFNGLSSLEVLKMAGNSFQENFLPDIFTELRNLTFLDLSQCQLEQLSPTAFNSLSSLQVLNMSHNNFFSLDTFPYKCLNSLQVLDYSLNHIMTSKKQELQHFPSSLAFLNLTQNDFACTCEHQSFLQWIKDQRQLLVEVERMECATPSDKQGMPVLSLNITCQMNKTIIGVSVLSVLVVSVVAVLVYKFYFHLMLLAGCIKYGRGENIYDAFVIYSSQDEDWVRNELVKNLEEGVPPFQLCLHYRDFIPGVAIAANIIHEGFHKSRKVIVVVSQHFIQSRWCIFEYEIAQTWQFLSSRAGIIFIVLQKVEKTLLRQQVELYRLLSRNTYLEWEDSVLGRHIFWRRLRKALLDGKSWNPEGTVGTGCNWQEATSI
Chain of human TLR4/MD-2 complex (human) (Q9Y6Y9 19-160, chain 2 of 2, further chain): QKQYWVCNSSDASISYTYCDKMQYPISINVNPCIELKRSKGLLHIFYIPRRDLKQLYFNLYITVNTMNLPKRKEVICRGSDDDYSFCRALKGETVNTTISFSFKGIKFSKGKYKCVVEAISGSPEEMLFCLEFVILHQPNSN

[2] = tested on: S100A8-mediated cell migration; conditions: ref [8]; cited from earlier work
Excerpt: VEGF is another NFκB-mediated re ...

PD-L1 in macrophages = tested on: PD-L1 in macrophages; design: method as in PMID 32198140; conditions: ref [29]; cited from earlier work
[3] = tested on: tumor cells and macrophages; conditions: ref [8]; cited from earlier work
Excerpt: S100A8 belongs to the S100s family and is characterized by two calcium-binding EF-hand motifs: a carboxyl-terminal EF-hand (high affinity to calcium), and an N-terminal EF-hand (low affinity to calcium) that are connected by a central hinge. Like most S100 proteins, S100A8 can form a heterodimer with S100A9 or can exist as a homodimer or monomer. Vogl et al. originally reported that S100A8-mediated cytokine induction was mediated via TLR4 [5].

SW480 cells = assay: qPCR, S100A8-mediated IL-8 and VEGF mRNA induction in SW480 cells; format: cell-based, human; conditions: Fig. 2E
Procedure: SW480 cells were treated with S100A8 in Dulbecco’s Modified Eagle Medium/HamF12 supplemented with 0.1% bovine serum albumin for cytokine induction. Total RNA was extracted using the RNeasy Mini Plus (Qiagen, Hilden, Germany). Complementary DNA was synthesized using the PrimeScript 1st Strand Synthesis kit (Takara Bio, Japan). Quantitative PCR (qPCR) analysis was performed using the PowerUp^TM SYBR^TM Green mixture (Thermo Fisher Scientific) and the StepOnePlus Real Time PCR System (Thermo Fisher Scientific). Gene expression levels were calculated from Ct values, and the relationship between the Ct value and the logarithm of the copy number of a target gene was confirmed to be on a linear line using the corresponding isolated DNA and its serial dilutions as a standard. Thus, the gene expression levels of IL-8 and VEGF were normalized against that of β-actin in each sample. The following primers were used; β-actin, 5′-[…]-3′ and 5′-[…]-3′; IL-8, 5′-[…]-3′ and 5′-[…]-3′; VEGF, 5′-[…]-3′ and 5′-[…]-3′.
Fig. 2 Identification of S100A8 binding sites to human TLR4/MD-2. […] TLR4/MD-2 recombinant proteins were immobilized to the ELISA plate. After blocking, a full length or deletion mutant of S100A8 was added to the plate. The more detailed methods are described in Materials and Methods. […] B A series of overlapping S100A8 synthetic peptides. The TLR4/MD-2 recombinant proteins were added to each well of peptide immobilized plates. The affinity to TLR4/MD-2 was determined. Data are shown as mean ± SD. C The competitive activity was determined using ELISA. Data are shown as mean ± SD. D The TLR4/MD-2 was mixed with S100A8 with/without the indicated peptides, and immunoprecipitated using an anti-TLR4 antibody. TLR4 or S100A8 was visualized. Similar results were obtained in three independent experiments. […] Total RNAs from SW480 cells with/without treatment of the peptide candidates were extracted and qPCR analysis was performed using relevant primer sets and SYBR green. Relative expression levels were compared. […] TEXT PRINTED IN THE PICTURE: (A) Full length: TLR4/MD-2 binding: + | (A) S100A8-ΔC: TLR4/MD-2 binding: − | (A) S100A8-N: TLR4/MD-2 binding: −
Fig. 4 Improvement of competitive inhibition activity by divalent peptide3A5. A The binding capacity was measured at the indicated concentration using an ELISA-based assay. Similar results were obtained in three independent experiments. B SW480 cells were pretreated with 2.5 µM of divalent peptide3A5, and then stimulated with human S100A8 recombinant protein. After 30 min, cell lysates were subjected to western blotting using the indicated antibody. The divalent peptide#3 or peptide3A5 reduced the expression of S100A8-mediated IL-8 (C) and VEGF (D) induction. Total RNAs from SW480 cells with/without treatment of the peptide candidates were extracted and qPCR analysis was performed using relevant primer sets and SYBR green. Relative expression levels were compared. Peptide #3 suppresses S100A8-mediated IL-8(E) and VEGF (F) secretion in SW480 cells.

[4] = tested on: p38 and p65 (NF-κB) in SW480 cells; conditions: ref [8]; cited from earlier work
Excerpt: TLR4/MD-2 dimerizes upon ligand binding. To attempt the inhibitory peptide fitted into dimerized forms, we generated a divalent peptide of peptide3A5 using Fmoc-Lys (Fmoc)-OH to form two branches in the peptide chain. […] We then examined the effect of divalent peptide3A5 on TLR4/MD-2 downstream signaling. […] Pretr ...

- S100A8-induced phosphorylation of p38 in SW480 cells pretreated with 2.5 µM divalent peptide3A5: fold inhibition [1]: 1.3 fold
- S100A8-induced phosphorylation of p65 (NF-κB) in SW480 cells pretreated with 2.5 µM divalent peptide3A5: fold inhibition [1]: 1.7 fold
B1: human S100A8 recombinant protein, full length (natural protein)
chain: MLTELEKALNSIIDVYHKYSLIKGNFHAVYRDDLKKLLETECPQYIRKKGADVWFKELDINTDGAVNFQEFLILVIKMGVAAHKKSHEESHKE
- recruitment of MDSCs from bone marrow to lungs (MDSCs): increased the recruitment of MDSCs from the bone marrow to the lungs; also recorded: induces pulmonary recruitment of MDSCs from bone marrow
- cell migration induced by S100A8 [2]: induces cell migration in a TLR4-dependent manner
- PD-L1 expression in macrophages (PD-L1 in macrophages): upregulated PD-L1 in macrophages via a TLR4-dependent pathway
- induction of inflammatory cytokines/chemokines by S100A8 [3]: induced inflammatory cytokines/chemokines in a TLR4-dependent manner
- IL-8 production induced by S100A8 (SW480 cells): induced IL-8 production
- phosphorylation of p38 MAP kinase / NF-κB activation by S100A8 [4]: induced phosphorylation of p38 MAP kinase, followed by activation of NF-κB signaling
